Data published in article PMC6182147.
Where two headings read alike, the source gives them in different places.

Columns and labels:
[1] = biological target: Clp-GST (L. enzymogenes Clp purified as GST-fusion) (Lysobacter enzymogenes) (UniProt Q7WZ07); experiment: MST
[2] = biological target: Clp-GST (L. enzymogenes Clp purified as GST-fusion) (Lysobacter enzymogenes) (UniProt Q7WZ07); experiment: MST; remark: listed apart in the source

Kd [1]: 7.18 nM
Kd [2]: 1.42 nM
Substance: LchP-PGE-MBP (cytoplasmic fragment of LchP, PAS+GGDEF+EAL domains, fused to maltose binding protein) (domain or fragment)
